# According to the supplement of paper PMC11865577:
# System: TO-N3-2 (biotin conjugate)
# Assay: pull-down binding Z-score (relative to library population); higher = stronger binding
# Conditions: RNA library: Library-2
# Procedure, shortened: (§1)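 Binding is given as a Z-score against the library mean and standard deviation, calculated after removing the beads-only signal and averaging barcoded replicate probes without their highest and lowest values. Cy5- or Cy3-end-labelled RNA library (1 μg) was heat-folded in phosphate/NaCl/KCl buffer and incubated 60 min at 25 °C with streptavidin beads bearing 100 pmol of biotin-conjugated small molecule. After three washes, RNA eluted in hot SDS was hybridised to a DNA barcode microarray for 20 h at 55.5 °C.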
row,Sequence,pull-down binding Z-score
1,UGGGUGGAUCCUCUAUUUCCUUACGUGGGCCACUGG [hsa-mir-432],0.845
2,UGGGUUAAGCCGAGCUGG [hsa-mir-4507],1.05
3,UGGGUUGAACUGUGUGGACAAGCUCA [hsa-mir-181b-1],0.631
4,UGGGUUGUGUCAGUGUCAGACCUC [hsa-mir-146a],0.838
5,UGGGUUUGAGUCUGAAUCAACUCA [hsa-mir-181b-2],-0.572
6,UGGUAUCCUGACCG [hsa-mir-1973],0.287
7,UGGUCAGAUAUCCCAU [hsa-mir-8060],-0.0919
8,UGGUCAGGCGGCU [hsa-mir-3917],0.442
9,UGGUGCAAUAAUUGG [hsa-mir-1302-7],0.245
10,UGGUGGAGAUGGAGAGCCCUGAGCCUCCA [hsa-mir-6777],1.17
11,UGGUGGGAGAGGAGCCCCACUGUGGAAGUCUGACCCCCACA [hsa-mir-6785],1.86
12,UGGUGGGGGCCGGGGCAGGCCCAGCGAAA [hsa-mir-648],1.94
13,UGGUGGUGAAUUCAUGAGUCGCCA [hsa-mir-3115],-0.62
14,UGGUUACGUGUUUGAUGGUUAAUCA [hsa-mir-376a-2],-0.0517
15,UGGUUAGCUUUUUUUUUUUUUUGAGAUGGAGUCUGGCUC [hsa-mir-8086],-0.598
16,UGGUUGAAUAUGUGAAUGGCAUCG [hsa-mir-449a],0.601
17,UGGUUUCACUA [hsa-mir-3713],-0.526
18,UGGUUUGACACAGAGCUAAAUCA [hsa-mir-5007],-0.172
19,UGUAAAAUGUAAUAACAUUUCUUAUGUUUAAAACACUUUACA [hsa-mir-4801],-1.14

# System: TO-N3 (biotin conjugate)
# Assay: as above
# Conditions: RNA library: Library-2
# Procedure, shortened: as §1
row,Sequence,pull-down binding Z-score
1,UGCUCAGUGGAGUUAUUUUGAGCA [hsa-mir-4495],-1.42
2,UGCUCCUUGAACAGGAGGAGCA [hsa-mir-4708],-0.683
3,UGCUCUGAUGAAGACCCAUGUGGC [hsa-mir-621],0.589
4,UGCUCUGGUGACUGAGGACCGCCAGGCA [hsa-mir-4763],-0.091
5,UGCUGAUGUCAUCAGUCAUAACUUCUGCG [hsa-mir-6854],-0.0155
6,UGCUGGAGAAGUGUUU [hsa-mir-557],0.49
7,UGCUGGUGCUAGAGAGGAAAGCA [hsa-mir-4748],0.985
8,UGCUGUGAGCUAGCCAGCAG [hsa-mir-5693],0.614
9,UGCUGUGCUGUGCUGAGCAGGGCUGAGCUG [hsa-mir-4539],1.07
10,UGCUGUUGCUGUGAAAGCUGA [hsa-mir-6823],0.559
11,UGCUGUUGGAGACUCGAUUGUUGGUGACAGCGAAAGAACGAUAACAAA [hsa-mir-3655],0.231
12,UGCUUCAGUUUCACUCCAAGCA [hsa-mir-4771-2_4771-1],-0.204
13,UGCUUCCACAUAGCAGCA [hsa-mir-4752],-0.62
14,UGCUUGACCUGAAUGCUACAAGGCA [hsa-mir-103b-2],-0.303
15,UGCUUGAUCCAUAUGCAACAAGGCA [hsa-mir-103b-1],0.57
16,UGCUUUACUUUUAAUGGCA [hsa-mir-548k],-1.15
17,UGCUUUGUUAGAAACAAAAAGCA [hsa-mir-4679-1],0.447
18,UGCUUUUUGUUUCUAACAAAGCA [hsa-mir-4679-2],0.0252
19,UGGAAGCUCCAGGUGCCAACCACCUGCCUCUA [hsa-mir-6731],0.231
20,UGGAAGGAAUGGGAUCUACUUCCA [hsa-mir-3612],0.285
21,UGGACAGAAAUUUCCUUUUGAGGAAAUCUUUCCC [hsa-mir-4308],-0.671
22,UGGACCUCAGGGAAGAGGCUG [hsa-mir-4673],-0.619
23,UGGACUGUGUACCAAUUUCCA [hsa-mir-194-1],-0.21
24,UGGAGCCAGGGGGCCCAGGUCUACAGCUUCUCCCCGCUCCC [hsa-mir-6752],0.328
25,UGGAGCUAGACCACAUGGGUUCA [hsa-mir-5100],-0.131

row,Sequence,pull-down binding Z-score
1,UGGAGGAGUCUGGUGGCCUGUUCUCUU [hsa-mir-6754],0.123
2,UGGAGGCUGACCUCUUACUUUCGGUCGGUCUUCUU [hsa-mir-4258],-0.486
3,UGGAGGCUGCAGUGAGCCGAGAUCGAGCCACUGUACUCCA [hsa-mir-1273e],1.14
4,UGGAGGGGGUUUGUUUGCUUAUUCCCCUCU [hsa-mir-6737],0.918
5,UGGAGGUGAUGGAUGUUUUCCUCCG [hsa-mir-671],-0.717
6,UGGAGGUGAUGGGGGCAGGGGAUGGGUCUCACCCUCCC [hsa-mir-5088],3.11
7,UGGAGUCAGUAUUGGUCUGGCCA [hsa-mir-4255],-0.319
8,UGGAGUUUUUUUUUCCUCCUG [hsa-mir-4329],0.219
9,UGGAUCACGCCGACAACACUGGUCU [hsa-mir-4635],0.823
10,UGGAUUUGAAAUGGUCCCACUCCUGACGAUCCU [hsa-mir-6748],-0.0778
11,UGGCAAAGACAUAGAUUGUUUAGCUACCCCUUUGCCA [hsa-mir-3119-2],-0.809
12,UGGCAAAGGGGUAGCUAAACAAUCUAUGUCUUUGCCA [hsa-mir-3119-1],-0.525
13,UGGCAAUUCAGUAAAAAUGCUCA [hsa-mir-6715b],-0.281
14,UGGCACAGAUCCAAUACCUUCUGUCCCC [hsa-mir-6810],-0.118
15,UGGCCAUUUCCUACCA [hsa-mir-617],-0.908
16,UGGCCUGGCAGUGCGUCGGAAGAACAGGGCGGGUGGGGCC [hsa-mir-4792],3.93
17,UGGCGACACUCGCGCCAGCUCCCGGGACGGCUGGGCUCGGGCUGGUCGCCGA [hsa-mir-7845],0.341
18,UGGCGGCGGCGAGGACACCGCCGCU [hsa-mir-4469],1.4
19,UGGCUGCUUGGGUCAAGUCAGCAGCCA [hsa-mir-449b],-0.272
20,UGGCUGUAGGGCAGCAGUCA [hsa-mir-8079],1.16
21,UGGCUUCUGCCUCUUUCUUUGUGGAAGCCA [hsa-mir-4269],-0.118
22,UGGCUUGCACCGUGACUCCCUCUCACCAAGCAAGUGUC [hsa-mir-4440],0.0846
23,UGGGAGGUAAGAGCUCUUCACCCUUCA [hsa-mir-197],-0.119
24,UGGGAGUGAUCCCAACAGCUGAGCUCCCU [hsa-mir-7106],0.756
25,UGGGCAGUUCUUCUGCUGG [hsa-mir-1587],0.149

row,Sequence,pull-down binding Z-score
1,UGGGCCAAG [hsa-mir-3620],0.825
2,UGGGCUCCCCUAGACUAGGACUCCA [hsa-mir-1825],-0.37
3,UGGGUAGAAAGUAUUAUUCUAUUCA [hsa-mir-664b],-0.28
4,UGGGUAGGAAUAUCCUGGAUCCCCU [hsa-mir-3189],0.102
5,UGGGUCAAGGAGCCCA [hsa-mir-4530],-0.3
6,UGGGUGGAUCCUCUAUUUCCUUACGUGGGCCACUGG [hsa-mir-432],0.729
7,UGGGUUAAGCCGAGCUGG [hsa-mir-4507],0.872
8,UGGGUUGAACUGUGUGGACAAGCUCA [hsa-mir-181b-1],0.366
9,UGGGUUGUGUCAGUGUCAGACCUC [hsa-mir-146a],0.187
10,UGGGUUUGAGUCUGAAUCAACUCA [hsa-mir-181b-2],-0.805
11,UGGUAUCCUGACCG [hsa-mir-1973],0.408
12,UGGUCAGAUAUCCCAU [hsa-mir-8060],-0.262
13,UGGUCAGGCGGCU [hsa-mir-3917],0.0412
14,UGGUGCAAUAAUUGG [hsa-mir-1302-7],0.4
15,UGGUGGAGAUGGAGAGCCCUGAGCCUCCA [hsa-mir-6777],0.727
16,UGGUGGGAGAGGAGCCCCACUGUGGAAGUCUGACCCCCACA [hsa-mir-6785],1.64
17,UGGUGGGGGCCGGGGCAGGCCCAGCGAAA [hsa-mir-648],2.27
18,UGGUGGUGAAUUCAUGAGUCGCCA [hsa-mir-3115],-0.671
19,UGGUUACGUGUUUGAUGGUUAAUCA [hsa-mir-376a-2],-0.0926
20,UGGUUAGCUUUUUUUUUUUUUUGAGAUGGAGUCUGGCUC [hsa-mir-8086],-0.772
21,UGGUUGAAUAUGUGAAUGGCAUCG [hsa-mir-449a],0.153
22,UGGUUUCACUA [hsa-mir-3713],0.378
23,UGGUUUGACACAGAGCUAAAUCA [hsa-mir-5007],0.596
24,UGUAAAAUGUAAUAACAUUUCUUAUGUUUAAAACACUUUACA [hsa-mir-4801],-0.783
